Reference: article PMC5967840
One block for each substance: values may come before it.

Tests used:
Assay in all cases: AUC; sedimentation velocity (60 krpm) and sedimentation equilibrium (six rotor speeds, 30-48 krpm, single ideal species model); 325 uM peptide in PI buffer (10 mM potassium phosphate pH 7.4), 1.625 mM TCEP, 25 mM NaCl, 20 °C
CC-R4-Tri3 = biological target: CC-R4-Tri3
[1] = biological target: CC-Tri3 variant with a negatively charged E4 block at the C terminus
[2] = biological target: CC-Tri3 variant with a negatively charged E4 block at the N terminus
[3] = biological target: CC-Tri3 with tetra-lysine (K4) appended to the N terminus
CC-Tri3-K4 = biological target: CC-Tri3-K4
CC-Tri3-R4 = biological target: CC-Tri3-R4

Substance: CC-Tri3 variant with a negatively charged E4 block at the N terminus (peptide)
stoichiometry N [2]: 3

Substance: CC-Tri3 with tetra-lysine (K4) appended to the N terminus (peptide)
stoichiometry N [3]: 3

Substance: CC-Tri3-R4 (peptide)
stoichiometry N (CC-Tri3-R4): 3

Continued, values first:

stoichiometry N (CC-R4-Tri3): 3
Substance: CC-R4-Tri3 (peptide)

stoichiometry N [1]: 3
Substance: CC-Tri3 variant with a negatively charged E4 block at the C terminus (peptide)

stoichiometry N (CC-Tri3-K4): 3
Substance: CC-Tri3-K4 (peptide)
